Read-outs that look alike come from different tables or passages of the source.
Experiments:
4H717-AA = molecular target: T1, 4H717-AA; assay: two-hybrid library CCmax; settings: mean of both orientations;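 also: natural log of median RNA to DNA barcode read ratio; higher means stronger binding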
T1 chain: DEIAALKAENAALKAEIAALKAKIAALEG

4H993-AA = molecular target: T2, 4H993-AA; assay: two-hybrid library CCmax; settings: mean of both orientations;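 also: natural log of median RNA to DNA barcode read ratio; higher means stronger binding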
T2 chain: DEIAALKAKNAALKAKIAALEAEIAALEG

4H678-AA = molecular target: T3, 4H678-AA; assay: two-hybrid library CCmax; settings: mean of both orientations;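 also: natural log of median RNA to DNA barcode read ratio; higher means stronger binding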
T3 chain: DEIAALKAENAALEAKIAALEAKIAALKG

4H48-AA = molecular target: T4, 4H48-AA; assay: two-hybrid library CCmax;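 also: natural log of median RNA to DNA barcode read ratio; higher means stronger binding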
T4 chain: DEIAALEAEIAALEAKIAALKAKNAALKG

4H881-AA = molecular target: T5, 4H881-AA; assay: two-hybrid library CCmax; settings: mean of both orientations;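 also: natural log of median RNA to DNA barcode read ratio; higher means stronger binding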
T5 chain: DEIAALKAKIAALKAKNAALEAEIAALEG

N5-AA = molecular target: T6, N5-AA; assay: two-hybrid library CCmax; settings: mean of both orientations;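 also: natural log of median RNA to DNA barcode read ratio; higher means stronger binding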
T6 chain: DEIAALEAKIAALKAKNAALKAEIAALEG

4H780-AA = molecular target: T7, 4H780-AA; assay: two-hybrid library CCmax; settings: mean of both orientations
T7 chain: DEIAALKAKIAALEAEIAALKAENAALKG

4H454-AA = molecular target: T8, 4H454-AA; assay: two-hybrid library CCmax
T8 chain: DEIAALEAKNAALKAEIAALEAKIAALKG

4H605-AA = molecular target: T9, 4H605-AA; assay: two-hybrid library CCmax; settings: mean of both orientations
T9 chain: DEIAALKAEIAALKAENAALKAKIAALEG

4H794-AA = molecular target: T10, 4H794-AA; assay: two-hybrid library CCmax; settings: mean of both orientations
T10 chain: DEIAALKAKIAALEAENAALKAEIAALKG

4H906-AA = molecular target: T11, 4H906-AA; assay: two-hybrid library CCmax; settings: mean of both orientations
T11 chain: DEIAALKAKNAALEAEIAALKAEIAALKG

4H566-AA = molecular target: T12, 4H566-AA; assay: two-hybrid library CCmax; settings: mean of both orientations
T12 chain: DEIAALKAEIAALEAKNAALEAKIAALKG

N6-AA = molecular target: T13, N6-AA; assay: two-hybrid library CCmax; settings: mean of both orientations
T13 chain: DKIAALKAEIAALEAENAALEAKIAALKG

O6-bP = molecular target: T14, O6-bP; assay: two-hybrid library CCNG1
T14 chain: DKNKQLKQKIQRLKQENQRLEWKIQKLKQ

4H3631-bH = molecular target: T15, 4H3631-bH; assay: two-hybrid library CCNG1
T15 chain: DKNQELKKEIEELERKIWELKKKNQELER

4H570-bH = molecular target: T16, 4H570-bH; assay: two-hybrid library CCNG1
T16 chain: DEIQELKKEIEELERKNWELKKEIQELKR

4H1804-bH = molecular target: T17, 4H1804-bH; assay: two-hybrid library CCNG1
T17 chain: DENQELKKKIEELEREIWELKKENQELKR

4H3638-bH = molecular target: T18, 4H3638-bH; assay: two-hybrid library CCNG1
T18 chain: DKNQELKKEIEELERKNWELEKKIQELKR

P8A-bH = molecular target: T19, P8A-bH; assay: two-hybrid library CCNG1
T19 chain: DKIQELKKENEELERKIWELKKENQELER

4H1985-bH = molecular target: T20, 4H1985-bH; assay: two-hybrid library CCNG1
T20 chain: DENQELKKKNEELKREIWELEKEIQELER

4H1710-bH = molecular target: T21, 4H1710-bH; assay: two-hybrid library CCNG1
T21 chain: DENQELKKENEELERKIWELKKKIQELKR

4H3129-bH = molecular target: T22, 4H3129-bH; assay: two-hybrid library CCNG1
T22 chain: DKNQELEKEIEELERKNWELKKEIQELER

4H3817-bH = molecular target: T23, 4H3817-bH; assay: two-hybrid library CCNG1
T23 chain: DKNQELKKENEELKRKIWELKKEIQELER

4H619-bH = molecular target: T24, 4H619-bH; assay: two-hybrid library CCNG1
T24 chain: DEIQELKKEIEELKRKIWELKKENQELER

4H906-bH = molecular target: T25, 4H906-bH; assay: two-hybrid library CCNG1
T25 chain: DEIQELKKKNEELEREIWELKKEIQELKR

4H496-bA = molecular target: T26, 4H496-bA; assay: two-hybrid library CCNG1
T26 chain: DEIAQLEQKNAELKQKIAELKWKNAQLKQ

4H1629-bH = molecular target: T27, 4H1629-bH; assay: two-hybrid library CCNG1
T27 chain: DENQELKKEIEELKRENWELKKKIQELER

4H3172-bH = molecular target: T28, 4H3172-bH; assay: two-hybrid library CCNG1
T28 chain: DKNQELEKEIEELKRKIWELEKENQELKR

4H3414-bH = molecular target: T29, 4H3414-bH; assay: two-hybrid library CCNG1
T29 chain: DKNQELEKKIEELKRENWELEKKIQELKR

4H3974-bH = molecular target: T30, 4H3974-bH; assay: two-hybrid library CCNG1
T30 chain: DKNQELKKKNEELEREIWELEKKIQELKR

4H584-bH = molecular target: T31, 4H584-bH; assay: two-hybrid library CCNG1
T31 chain: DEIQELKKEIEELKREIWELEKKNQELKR

4H850-bH = molecular target: T32, 4H850-bH; assay: two-hybrid library CCNG1
T32 chain: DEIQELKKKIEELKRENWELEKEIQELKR

B1: 4H454-AA (peptide)
chain: DEIAALEAKNAALKAEIAALEAKIAALKG
- interaction score (4H717-AA): 0.898
- interaction score (4H993-AA): 1.82
- interaction score (4H678-AA): 2.11
- interaction score (4H48-AA; mean of both orientations): -0.839
- interaction score (4H881-AA): 0.451
- interaction score (N5-AA): 0.301
- interaction score (4H780-AA): -1.48
- interaction score (4H454-AA): 1.45
- interaction score (4H605-AA): -1.24
- interaction score (4H794-AA): -0.535
- interaction score (4H906-AA): 0.951
- interaction score (4H566-AA): 0.133
- interaction score (N6-AA): 1.89

B2: 4H1629-bH (peptide)
chain: DENQELKKEIEELKRENWELKKKIQELER
- interaction score (O6-bP): 1.7
- interaction score (4H3631-bH): -0.299
- interaction score (4H570-bH): -1.69
- interaction score (4H1804-bH): -1.81
- interaction score (4H3638-bH): -1.09
- interaction score (P8A-bH): 0.887
- interaction score (4H1985-bH): -0.16
- interaction score (4H1710-bH): -2.67
- interaction score (4H3129-bH): -0.581
- interaction score (4H3817-bH): -0.618
- interaction score (4H619-bH): 0.577
- interaction score (4H906-bH): -0.794
- interaction score (4H496-bA): -2.88
- interaction score (4H1629-bH): -0.954
- interaction score (4H3172-bH): -0.534
- interaction score (4H3414-bH): -1.1
- interaction score (4H3974-bH): 0.236
- interaction score (4H584-bH): 0.366
- interaction score (4H850-bH): 1.03

B3: 4H48-AA (peptide)
chain: DEIAALEAEIAALEAKIAALKAKNAALKG
- interaction score (4H717-AA): -1.37
- interaction score (4H993-AA): 0.666
- interaction score (4H678-AA): -0.779
- interaction score (4H48-AA): 1.11
- interaction score (4H881-AA): 0.161
- interaction score (N5-AA): 0.994
- interaction score (4H605-AA): -1.62
- interaction score (4H794-AA): -1.49
- interaction score (4H906-AA): -1.25
- interaction score (4H566-AA): -0.519
- interaction score (N6-AA): 1.34

— article PMC10397247
